Data on 1 variant can be found in IntAct's records for PubMed 38288086.

B1: OTU domain-containing protein 3 (Homo sapiens), Q5T2D3 (parent)
chain: MSRKQAAKSRPGSGSRKAEAERKRDERAARRALAKERRNRPESGGGGGCEEEFVSFANQLQALGLKLREVPGDGNCLFRALGDQLEGHSRNHLKHRQETVDYMIKQREDFEPFVEDDIPFEKHVASLAKPGTFAGNDAIVAFARNHQLNVVIHQLNAPLWQIRGTEKSSVRELHIAYRYGEHYDSVRRINDNSEAPAHLQTDFQMLHQDESNKREKIKTKGMDSEDDLRDEVEDAVQKVCNATGCSDFNLIVQNLEAENYNIESAIIAVLRMNQGKRNNAEENLEPSGRVLKQCGPLWEEGGSGARIFGNQGLNEGRTENNKAQASPSEENKANKNQLAKVTNKQRREQQWMEKKKRQEERHRHKALESRGSHRDNNRSEAEANTQVTLVKTFAALNI
partner: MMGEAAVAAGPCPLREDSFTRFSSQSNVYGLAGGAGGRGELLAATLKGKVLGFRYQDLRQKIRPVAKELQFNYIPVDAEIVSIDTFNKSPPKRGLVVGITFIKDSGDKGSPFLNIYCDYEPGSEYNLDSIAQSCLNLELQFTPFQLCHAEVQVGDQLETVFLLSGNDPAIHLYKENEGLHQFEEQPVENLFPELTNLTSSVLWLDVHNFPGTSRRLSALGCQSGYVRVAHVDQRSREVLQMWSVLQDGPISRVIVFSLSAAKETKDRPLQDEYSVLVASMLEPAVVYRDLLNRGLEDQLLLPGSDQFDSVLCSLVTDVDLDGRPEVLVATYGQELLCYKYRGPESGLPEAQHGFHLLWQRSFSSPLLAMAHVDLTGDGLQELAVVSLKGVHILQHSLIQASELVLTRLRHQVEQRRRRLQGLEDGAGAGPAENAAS

Variants of B1 are the subject of this assay. As to conditions: with kptn_human KPTN.
For MSRKQAAKSRPGSGSRKAEAERKRDERAARRALAKERRNRPESGGGGGCEEEFVSFANQLQALGLKLREVPGDGNALFRALGDQLEGHSRNHLKHRQETVDYMIKQREDFEPFVEDDIPFEKHVASLAKPGTFAGNDAIVAFARNHQLNVVIHQLNAPLWQIRGTEKSSVRELHIAYRYGEHYDSVRRINDNSEAPAHLQTDFQMLHQDESNKREKIKTKGMDSEDDLRDEVEDAVQKVCNATGCSDFNLIVQNLEAENYNIESAIIAVLRMNQGKRNNAEENLEPSGRVLKQCGPLWEEGGSGARIFGNQGLNEGRTENNKAQASPSEENKANKNQLAKVTNKQRREQQWMEKKKRQEERHRHKALESRGSHRDNNRSEAEANTQVTLVKTFAALNI [C76A], the “effect of a mutation on the interaction” value is “with no effect”.
